Laboratory results published in article PMC9482650, “Quantitative fragmentomics allow affinity mapping of interactomes” (Nature Communications, 2022).

Key:
Assay in all cases: holdup assay
Parameters in all cases: key: below the threshold = too weak to quantify, mostly under pKd 3.1 to 4
APBA2_1, Q99767 = target: T1, APBA2_1, Q99767
T1 sequence (Q99767 563-664, limits assumed, looked up): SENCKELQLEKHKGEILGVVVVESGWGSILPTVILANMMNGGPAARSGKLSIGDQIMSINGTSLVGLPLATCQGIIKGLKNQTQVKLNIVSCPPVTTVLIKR

CASK, O14936 = target: CASK, O14936
DFNB31_1, Q9P202 = target: T2, DFNB31_1, Q9P202
T2 sequence (Q9P202 135-233, limits assumed, looked up): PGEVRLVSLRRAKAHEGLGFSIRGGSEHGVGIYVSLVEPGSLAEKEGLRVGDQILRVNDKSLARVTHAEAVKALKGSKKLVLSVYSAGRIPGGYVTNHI

DFNB31_3, Q9P202 = target: T3, DFNB31_3, Q9P202
T3 sequence (Q9P202 811-907, limits assumed, looked up): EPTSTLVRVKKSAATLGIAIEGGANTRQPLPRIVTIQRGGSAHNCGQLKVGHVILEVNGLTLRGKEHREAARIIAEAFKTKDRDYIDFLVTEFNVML

DLG1_1, Q12959 = target: DLG1_1, Q12959
DLG2_2, Q15700 = target: DLG2_2, Q15700
DLG3_1, Q92796 = target: T4, DLG3_1, Q92796
T4 sequence (Q92796 125-227, limits assumed, looked up): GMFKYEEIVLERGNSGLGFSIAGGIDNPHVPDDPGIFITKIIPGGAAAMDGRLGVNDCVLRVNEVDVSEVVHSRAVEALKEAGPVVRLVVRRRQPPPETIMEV

FRMPD2_3, Q68DX3 = target: FRMPD2_3, Q68DX3
GOPC, Q9HD26 = target: GOPC, Q9HD26
GORASP1, Q9BQQ3 = target: GORASP1, Q9BQQ3
HTRA2, O43464 = target: HTRA2, O43464
Inadl_5, Q8NI35 = target: Inadl_5, Q8NI35
Inadl_8, Q8NI35 = target: Inadl_8, Q8NI35
Inadl_9, Q8NI35 = target: Inadl_9, Q8NI35
LDB3, O75112 = target: LDB3, O75112
LIN7C, Q9NUP9 = target: T5, LIN7C, Q9NUP9
T5 sequence (Q9NUP9 88-185, limits assumed, looked up): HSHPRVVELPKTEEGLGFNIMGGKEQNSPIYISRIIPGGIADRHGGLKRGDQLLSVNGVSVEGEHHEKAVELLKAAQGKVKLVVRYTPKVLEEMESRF

LNX2_2, Q8N448 = target: T6, LNX2_2, Q8N448
T6 sequence (Q8N448 334-432, limits assumed, looked up): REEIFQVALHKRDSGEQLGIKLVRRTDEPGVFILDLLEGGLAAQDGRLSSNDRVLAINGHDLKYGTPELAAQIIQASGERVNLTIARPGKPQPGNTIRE

MAGI1_2, Q96QZ7 = target: MAGI1_2, Q96QZ7
MAGI2_2, Q86UL8 = target: MAGI2_2, Q86UL8
MAGI2_6, Q86UL8 = target: MAGI2_6, Q86UL8
MAST1, Q9Y2H9 = target: MAST1, Q9Y2H9
MPP2, Q14168 = target: T7, MPP2, Q14168
T7 sequence (Q14168 180-250, limits assumed, looked up): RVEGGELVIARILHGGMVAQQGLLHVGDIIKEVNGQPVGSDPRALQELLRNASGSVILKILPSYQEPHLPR

MPP6, Q9NZW5 = target: T8, MPP6, Q9NZW5
T8 sequence (Q9NZW5 125-219, limits assumed, looked up): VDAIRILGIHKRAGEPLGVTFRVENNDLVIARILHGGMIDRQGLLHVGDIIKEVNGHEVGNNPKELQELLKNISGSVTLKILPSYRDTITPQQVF

NOS1, P29475 = target: NOS1, P29475
PICK1, Q9NRD5 = target: PICK1, Q9NRD5
PTPN13_1, Q12923 = target: T9, PTPN13_1, Q12923
T9 sequence (Q12923 1088-1188, limits assumed, looked up): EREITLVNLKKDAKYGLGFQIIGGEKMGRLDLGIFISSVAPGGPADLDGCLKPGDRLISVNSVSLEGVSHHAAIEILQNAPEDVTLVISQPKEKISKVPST

PTPN3, P26045 = target: PTPN3, P26045
SNTA1, Q13424 = target: T10, SNTA1, Q13424
T10 sequence (Q13424 82-180, limits assumed, looked up): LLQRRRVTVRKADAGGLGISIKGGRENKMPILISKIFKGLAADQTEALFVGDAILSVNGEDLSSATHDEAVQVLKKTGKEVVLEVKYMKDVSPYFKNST

TJP1_3, Q07157 = target: TJP1_3, Q07157
[1] = plain residues with an end cap or a label only (N-terminal biotin on a linker: ado-ado)
[2] = plain residues with an end cap or a label only (N-terminal biotin on a linker: ttds)

MAGI2_2, Q86UL8, sequence (Q86UL8 410-522): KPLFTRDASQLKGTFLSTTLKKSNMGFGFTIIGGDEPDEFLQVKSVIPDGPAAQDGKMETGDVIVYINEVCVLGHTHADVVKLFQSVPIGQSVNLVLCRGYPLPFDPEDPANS
PICK1, Q9NRD5, sequence (Q9NRD5 17-115): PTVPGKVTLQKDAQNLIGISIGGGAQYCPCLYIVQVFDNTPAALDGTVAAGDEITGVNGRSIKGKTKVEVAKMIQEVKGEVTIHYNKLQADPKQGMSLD
FRMPD2_3, Q68DX3, sequence (Q68DX3 1073-1166): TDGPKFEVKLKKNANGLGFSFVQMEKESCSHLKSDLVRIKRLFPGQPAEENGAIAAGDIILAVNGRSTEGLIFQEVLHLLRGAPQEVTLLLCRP
CASK, O14936, sequence (O14936 487-570): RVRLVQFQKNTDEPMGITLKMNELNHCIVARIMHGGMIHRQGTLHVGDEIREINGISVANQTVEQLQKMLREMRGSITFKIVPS
LDB3, O75112, sequence (O75112 1-94): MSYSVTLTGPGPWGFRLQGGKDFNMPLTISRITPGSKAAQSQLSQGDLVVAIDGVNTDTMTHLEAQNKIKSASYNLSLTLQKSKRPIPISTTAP
DLG2_2, Q15700, sequence (Q15700 189-283): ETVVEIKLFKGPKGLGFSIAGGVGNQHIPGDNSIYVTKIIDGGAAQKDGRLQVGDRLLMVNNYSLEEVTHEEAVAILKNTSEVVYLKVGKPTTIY
Inadl_9, Q8NI35, sequence (Q8NI35 1530-1615): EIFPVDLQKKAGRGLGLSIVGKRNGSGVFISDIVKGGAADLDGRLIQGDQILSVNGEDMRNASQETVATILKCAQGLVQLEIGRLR
Inadl_5, Q8NI35, sequence (Q8NI35 673-780): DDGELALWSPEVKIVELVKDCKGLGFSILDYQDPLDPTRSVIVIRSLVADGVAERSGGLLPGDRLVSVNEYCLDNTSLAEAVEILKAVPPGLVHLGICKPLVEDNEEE
MAGI2_6, Q86UL8, sequence (Q86UL8 1141-1229): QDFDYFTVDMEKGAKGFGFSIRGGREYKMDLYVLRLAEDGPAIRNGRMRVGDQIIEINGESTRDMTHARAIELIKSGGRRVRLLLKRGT
GORASP1, Q9BQQ3, sequence (Q9BQQ3 1-208): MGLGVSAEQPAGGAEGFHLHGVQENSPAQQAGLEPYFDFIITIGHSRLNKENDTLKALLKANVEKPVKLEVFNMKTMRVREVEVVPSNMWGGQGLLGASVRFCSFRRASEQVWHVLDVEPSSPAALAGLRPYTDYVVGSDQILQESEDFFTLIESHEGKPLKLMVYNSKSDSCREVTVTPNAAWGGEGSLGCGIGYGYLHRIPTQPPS
MAST1, Q9Y2H9, sequence (Q9Y2H9 962-1065): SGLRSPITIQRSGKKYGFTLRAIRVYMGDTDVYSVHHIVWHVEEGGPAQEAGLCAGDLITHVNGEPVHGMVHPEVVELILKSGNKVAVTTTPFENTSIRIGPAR
NOS1, P29475, sequence (P29475 9-101): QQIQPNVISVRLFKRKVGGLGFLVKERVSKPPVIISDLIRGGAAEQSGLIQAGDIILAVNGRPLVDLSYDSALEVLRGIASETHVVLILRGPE
Inadl_8, Q8NI35, sequence (Q8NI35 1425-1530): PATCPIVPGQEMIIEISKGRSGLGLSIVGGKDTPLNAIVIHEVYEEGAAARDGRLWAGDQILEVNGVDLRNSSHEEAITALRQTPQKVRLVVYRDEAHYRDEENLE
HTRA2, O43464, sequence (O43464 355-458): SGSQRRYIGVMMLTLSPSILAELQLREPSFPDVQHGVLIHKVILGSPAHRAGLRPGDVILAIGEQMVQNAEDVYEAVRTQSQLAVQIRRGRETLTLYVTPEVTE
TJP1_3, Q07157, sequence (Q07157 416-512): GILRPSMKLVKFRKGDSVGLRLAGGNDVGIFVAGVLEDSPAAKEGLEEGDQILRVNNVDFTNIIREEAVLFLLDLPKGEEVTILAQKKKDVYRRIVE
PTPN3, P26045, sequence (P26045 505-587): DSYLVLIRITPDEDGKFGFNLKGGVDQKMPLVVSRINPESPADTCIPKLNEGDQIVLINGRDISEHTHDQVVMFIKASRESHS
MAGI1_2, Q96QZ7, sequence (Q96QZ7 456-580): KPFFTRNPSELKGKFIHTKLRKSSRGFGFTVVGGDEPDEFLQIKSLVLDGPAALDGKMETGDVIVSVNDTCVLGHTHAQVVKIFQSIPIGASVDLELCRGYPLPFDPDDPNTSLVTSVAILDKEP

With IGHEDLETAV [DGKI, O75912] the pKd (APBA2_1, Q99767; [1]) was “below the threshold”, the pKd (CASK, O14936; [1]) was “below the threshold” and the pKd (DFNB31_1, Q9P202; [1]) was 4.79. For the same binder, the pKd (DFNB31_3, Q9P202; [1]) was 3.92, the pKd (DLG1_1, Q12959; [1]) was 4.51 and the pKd (DLG2_2, Q15700; [1]) was 4.71. For the same binder, the pKd (DLG3_1, Q92796; [1]) was 4.09, the pKd (FRMPD2_3, Q68DX3; [1]) was 3.56 and the pKd (GOPC, Q9HD26; [1]) was 3.58. The pKd (GORASP1, Q9BQQ3; [1]) was “below the threshold”, the pKd (HTRA2, O43464; [1]) was “below the threshold” and the pKd (Inadl_5, Q8NI35; [1]) was “below the threshold”. The pKd (Inadl_8, Q8NI35; [1]) was “below the threshold”, the pKd (Inadl_9, Q8NI35; [1]) was 3.49 and the pKd (LDB3, O75112; [1]) was “below the threshold”. For the same binder, the pKd (LIN7C, Q9NUP9; [1]) was 4.57, the pKd (LNX2_2, Q8N448; [1]) was 3.73 and the pKd (MAGI1_2, Q96QZ7; [1]) was “below the threshold”. For the same binder, the pKd (MAGI2_2, Q86UL8; [1]) was 3.74, the pKd (MAGI2_6, Q86UL8; [1]) was 4.59 and the pKd (MAST1, Q9Y2H9; [1]) was 4.89. For the same binder, the pKd (MPP2, Q14168; [1]) was “below the threshold”, the pKd (MPP6, Q9NZW5; [1]) was “below the threshold” and the pKd (NOS1, P29475; [1]) was 4.17. The pKd (PICK1, Q9NRD5; [1]) was “below the threshold”, the pKd (PTPN13_1, Q12923; [1]) was “below the threshold” and the pKd (PTPN3, P26045; [1]) was 5.02. For the same binder, the pKd (SNTA1, Q13424; [1]) was 5.18 and the pKd (TJP1_3, Q07157; [1]) was “below the threshold”.

In the case of SQDPKKPSRV [CBY2, Q8NA61], the pKd (APBA2_1, Q99767; [1]) is reported as “below the threshold”, the pKd (CASK, O14936; [1]) is reported as “below the threshold” and the pKd (DFNB31_1, Q9P202; [1]) is reported as “below the threshold”. The pKd (DFNB31_3, Q9P202; [1]) was “below the threshold”, the pKd (DLG1_1, Q12959; [1]) was “below the threshold” and the pKd (DLG2_2, Q15700; [1]) was “below the threshold”. The pKd (DLG3_1, Q92796; [1]) was “below the threshold”, the pKd (FRMPD2_3, Q68DX3; [1]) was “below the threshold” and the pKd (GOPC, Q9HD26; [1]) was 3.75. The pKd (GORASP1, Q9BQQ3; [1]) was “below the threshold”, the pKd (HTRA2, O43464; [1]) was “below the threshold” and the pKd (Inadl_5, Q8NI35; [1]) was “below the threshold”. The pKd (Inadl_8, Q8NI35; [1]) was 4.43, the pKd (Inadl_9, Q8NI35; [1]) was 4.08 and the pKd (LDB3, O75112; [1]) was “below the threshold”. For the same binder, the pKd (LIN7C, Q9NUP9; [1]) was “below the threshold”, the pKd (LNX2_2, Q8N448; [1]) was “below the threshold” and the pKd (MAGI1_2, Q96QZ7; [1]) was “below the threshold”. For the same binder, the pKd (MAGI2_2, Q86UL8; [1]) was 4.38, the pKd (MAGI2_6, Q86UL8; [1]) was “below the threshold” and the pKd (MAST1, Q9Y2H9; [1]) was “below the threshold”. For the same binder, the pKd (MPP2, Q14168; [1]) was “below the threshold”, the pKd (MPP6, Q9NZW5; [1]) was 3.89 and the pKd (NOS1, P29475; [1]) was 3.76. For the same binder, the pKd (PICK1, Q9NRD5; [1]) was 4.21, the pKd (PTPN13_1, Q12923; [1]) was “below the threshold” and the pKd (PTPN3, P26045; [1]) was “below the threshold”. The pKd (SNTA1, Q13424; [1]) was 3.48 and the pKd (TJP1_3, Q07157; [1]) was “below the threshold”.

In the case of GARVSKETPL [MAPK12, P53778], the pKd (APBA2_1, Q99767; [2]) is reported as “below the threshold”, the pKd (CASK, O14936; [2]) is reported as “below the threshold” and the pKd (DFNB31_1, Q9P202; [2]) is reported as 3.95. The pKd (DFNB31_3, Q9P202; [2]) was “below the threshold”, the pKd (DLG1_1, Q12959; [2]) was 4.08 and the pKd (DLG2_2, Q15700; [2]) was 4.25. The pKd (DLG3_1, Q92796; [2]) was 3.49, the pKd (FRMPD2_3, Q68DX3; [2]) was “below the threshold” and the pKd (GOPC, Q9HD26; [2]) was “below the threshold”. The pKd (GORASP1, Q9BQQ3; [2]) was “below the threshold”, the pKd (HTRA2, O43464; [2]) was “below the threshold” and the pKd (Inadl_5, Q8NI35; [2]) was “below the threshold”. For the same binder, the pKd (Inadl_8, Q8NI35; [2]) was “below the threshold”, the pKd (Inadl_9, Q8NI35; [2]) was “below the threshold” and the pKd (LDB3, O75112; [2]) was “below the threshold”. The pKd (LIN7C, Q9NUP9; [2]) was “below the threshold”, the pKd (LNX2_2, Q8N448; [2]) was “below the threshold” and the pKd (MAGI1_2, Q96QZ7; [2]) was 3.76. The pKd (MAGI2_2, Q86UL8; [2]) was 3.83, the pKd (MAGI2_6, Q86UL8; [2]) was 3.89 and the pKd (MAST1, Q9Y2H9; [2]) was 4.65. The pKd (MPP2, Q14168; [2]) was “below the threshold”, the pKd (MPP6, Q9NZW5; [2]) was “below the threshold” and the pKd (NOS1, P29475; [2]) was 3.82. For the same binder, the pKd (PICK1, Q9NRD5; [2]) was “below the threshold”, the pKd (PTPN13_1, Q12923; [2]) was “below the threshold” and the pKd (PTPN3, P26045; [2]) was 4.93. The pKd (SNTA1, Q13424; [2]) was 4.49 and the pKd (TJP1_3, Q07157; [2]) was “below the threshold”.
